# Assay results published in the supplement of paper PMC9170038.
# System: MS2 coat protein
# Experiment: apparent KD of MS2 coat protein; designed switch direction (-1 OFF switch, 1 ON switch): -1; higher = weaker reporter binding
# How it was run: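 Each step of the titration lasted 0.8–1.5 h at the lowest concentration and 10–20 min at the highest. The protein, SNAP-549-labelled MS2 coat protein, went from 0.7 or 1.5 nM doubling to 3 µM over RNA switches transcribed on Illumina chips by stalled E. coli RNA polymerase. Normalised cluster fluorescence was curve-fitted, and the per-design median over clusters is given as apparent KD.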
# [1] = Eterna round: R95, input ligand: microRNA oligo, concentration not stated
Sequence,apparent KD of MS2 coat protein (input ligand: FMN 200 uM) [nM],apparent KD of MS2 coat protein (input ligand: none) [nM],further results
"UUUCCUGCGCGGGUUUUUUACAUGAGGAUCACCCAUGUCCUCUGCUUGUCUUGUCUUGGGCUUGUUUCGGGUUCGGG [-18.4, -40.2 kcal, A 8%] (Eterna round: R97, puzzle: Sensor, turn-off variant 1)",635,1190,
"AAUAAAGUAGGAUAUACAUGAGGAUCACCCAUGUCCCACCCGUUACCUAUGACCAUAUGUAGAAGGACUAAUAA [Exy#3] (Eterna round: R97, puzzle: Exclusion 3)",80,59.1,
"CGGGCGCGAGGAUAUACAUGAGGAUCACCCAUGUAACGGCGAGCAAUGUUUGUUGCGUGUAGAAGGUGUGUUUG [-20.1, -18.7 kcal, A 27%] (Eterna round: R97, puzzle: Exclusion 3)",112,155,
"AAUAAUAAACAAGCUUUUUACAUGAGGAUCACCCAUGUCCUCUGCUCGUCUUAUCUUGGGCUUUUUUUGGGUUCGGG [-16.4, -45 kcal, A 21%] (Eterna round: R97, puzzle: Sensor, turn-off variant 1)",813,891,
"CCAGUACGAGGAUAUACAUGAGGAUCACCCAUGUAAAUUGCCACGUCUUGGACGUCAUGUAGAAGGCGUUGGAA [EX3 C.1] (Eterna round: R97, puzzle: Exclusion 3)",15.2,14.3,
"GCAAGCUUUUGCUCGGCUUACAUGAGGAUCACCCAUGUGGGCCCGGGCCCGGGCCCGCCGGGCCCGGGCCCGGGCCC [-58.5, -80.7, A 10%] (Eterna round: R97, puzzle: Sensor, turn-off variant 1)",24.4,25.4,
"UUGUACCGGUGAGGAUAUUUUUAAUAGAGCUUUAUGAUAUACAUGAGGAUCACCCAUGUUACGUUAAAGAAGGCAUCGGAUUAU [JL JR Sub091 mod 4] (Eterna round: R96, puzzle: Exclusion NG 2)",18.6,21.6,"apparent KD of MS2 coat protein (input ligand: microRNA oligo, concentration not stated): 13.9 nM"
"GUGAGUAGUCAGGAUAUGCUGUACAAAAGUACAGCAGAAGGGACUACAUGAGGAUCACCCAUGUUUACUUCAUG [Omei Ex6 B5] (Eterna round: R97, puzzle: Exclusion 6)",522,609,
"AGAAAUGCCCAUGGCCGCAAGCUCUUUGCUUGUCUUACCACAUGAGGAUCACCCAUGUGACAUGGGCUCCUUAUAAU [Riquarge] (puzzle: Sensor v3, turn-off variant 2)",,,"apparent KD of MS2 coat protein (Eterna round: R95, input ligand: FMN 200 uM): 13.9 nM; apparent KD of MS2 coat protein [1]: 9.77 nM; apparent KD of MS2 coat protein (Eterna round: R95, input ligand: none): 12 nM"
"GUUAUUUCAGGAUAUACAUGAGGAUCACCCAUGUAAGCAAGGUGCCUGCAUCCCGACUGUAGAAGGGAAAUGAG [Eternabot (L2) Solution 61] (Eterna round: R97, puzzle: Exclusion 3)",29.9,28.5,
"ACAAGCUAUAUGCUCGGUUACAUGAGGAUCACCCAUGUACUCAUGUUCUUAUGUACUGACACGAAAGUGUUAGUAAU [AK-miRNA-r3-1] (Eterna round: R97, puzzle: Sensor, turn-off variant 1)",110,122,
GAUGUUCUGGUCAGGAUAUGCAUCCGUCGGCCGGAGCAGAAGGGACAUGAGGAUCACCCAUGUGCGGGUACAAA [Onvegeor] (puzzle: Brourd's mod of Exclusion 4),,,apparent KD of MS2 coat protein [1]: 38.4 nM
"AUUCGAAAGAUCCACAUGGACAUGAGGAUCACCCAUGUGCAAGCCUUUUUCUCGUCACUAUCGUCAAAAGACGAUAG [Omei Mir Offv1 A7] (Eterna round: R97, puzzle: Sensor, turn-off variant 1)",744,848,
"UAACAAGCUUUAAGAUCCUACAUGAGGAUCACCCAUGUGCUCGUCUUAUAACGUACUGUGACGAAAGUCACGGUACG [JL TOV1 3.17] (Eterna round: R97, puzzle: Sensor, turn-off variant 1)",206,160,
